In PMC4522956 (2015):

B1: C-terminal Per-Arnt-Sim (PASb) domain of human HIF-3α9 (domain or fragment)
chain: GAFLSRHSLDMKFTYCDDRIAEVAGYSPDDLIGCSAYEYIHALDSDAVSKSIHTLLSKGQAVTGQYRFLARSGGYLWTQTQATVVSGGRGPQSESIVCVHFLISQVEET
B2: HIF-1α PASb (domain or fragment)
chain: not shown

How the values were obtained:
[1] = biological target: T1, HIF-1β PASb labeled with FITC (human (cDNA library from the breast …, UniProt P27540 349-467, FITC (fluorescein isothiocyanate) label, sites not stated)); assay: FP; PASb-3α with linoleic acid, at equilibrium
T1 sequence (P27540 349-467): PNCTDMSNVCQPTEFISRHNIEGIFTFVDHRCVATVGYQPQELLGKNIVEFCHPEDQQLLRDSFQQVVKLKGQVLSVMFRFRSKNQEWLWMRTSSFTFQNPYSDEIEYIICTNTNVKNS

[2] = biological target: T1, HIF-1β PASb labeled with FITC; assay: FP; PASb-3α with bacterial lipids, at equilibrium
[3] = biological target: T1, HIF-1β PASb labeled with FITC; assay: FP; at equilibrium

| Binder | Kd [1] [µM] | Kd [2] [µM] | Kd [3] [µM] |
| --- | --- | --- | --- |
| B1 | 10 | 12 | – |
| B2 | – | – | 36 |
